Data published in US20060172935A1 (published 2006).
Each block holds one molecule with its values, some of them ahead of it.

Tests used:
[1] = molecular target: PKR2 stably expressed in Chinese Hamster Ovary cells (CHO-PKR2); assay: cell-based or functional assay
[2] = molecular target: T1, mouse PK2 receptor (mouse, UniProt Q8K458 1-381); assay: PK2 receptor binding assay with radioiodinated ligand (FIG. 11)
T1 construct: G-protein coupled receptor; also called PKR2; mouse PKR2
Text: An exemplary assay for determining binding of detectably labeled PK2, PK1 or PK2/PK1 chimera to PK2 receptor or PK1 receptor is the radioligand filter binding assay described in Li et al. Molecular Pharmacology 59:692-698 (2001)). […] A variety of other low- and high-throughput assays suitable for detecting selective binding interactions between a receptor and a ligand are known in the art. Such assays include, for example, fluorescence correlation spectroscopy (FCS) and scintillation proximity assays (SPA) reviewed in Major, J. Receptor and Signal Transduction Res. 15:595-607 (1995); and in Sterrer et al., J. Receptor and Signal Transduction Res. 17:511-520 (1997)). Binding assays can be performed in any suitable assay format including, for example, cell preparations such as whole cells or membranes that contain PK2 receptor or PK1 receptor, or substantially purified PK2 receptor polypeptide or PK1 receptor, either in solution or bound to a solid support.

T1 sequence (Q8K458 whole entry): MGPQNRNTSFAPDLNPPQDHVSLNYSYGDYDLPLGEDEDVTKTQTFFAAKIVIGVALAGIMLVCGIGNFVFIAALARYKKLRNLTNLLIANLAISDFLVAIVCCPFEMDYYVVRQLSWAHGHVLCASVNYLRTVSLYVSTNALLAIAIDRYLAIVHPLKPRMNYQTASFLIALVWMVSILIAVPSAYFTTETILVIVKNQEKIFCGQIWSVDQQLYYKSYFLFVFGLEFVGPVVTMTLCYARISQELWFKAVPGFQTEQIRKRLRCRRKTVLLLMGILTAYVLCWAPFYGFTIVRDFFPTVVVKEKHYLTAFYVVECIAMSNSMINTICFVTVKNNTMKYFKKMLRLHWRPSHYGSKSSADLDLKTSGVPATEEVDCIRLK

EC50, calcium mobilization [1]: 7.3 nM | fold stimulation of CLOCK:BMAL1-mediated transcription of the 2.8 kb PK2 promoter (luciferase) [1]: 4 fold
Molecule: purified recombinant mouse PK2 (from UniProt Q9QXU7 27-128) (ligand)

Kd [2]: ~1 nM
B1: 125I-human PK2 (iodinated human prokineticin 2) (ligand)
chain: AVITGACDKDSQCGGGMCCAVSIWVKSIRICTPMGKLGDSCHPLTRKVPFFGRRMHHTCPCLPGLACLRTSFNRFICLAQK
modifications: radioiodinated with 125I (residue not stated for this assay)
notes: also called iodinated PK2
